These results are taken from paper PMC3902126.

In assay [1] the target is Brucella abortus RicA (Rab2 interacting conserved protein A), His6-RicA (1-175) (Brucella abortus). In words: ITC. In general terms: In ITC the heat of successive injections is recorded.
For assay [2] the target is unchanged. In words: ITC. The source holds these as a separate data set.

Read-outs that look alike come from different tables or passages of the source.

As to “Homo sapiens Rab2 (1-212) (from UniProt P61019 1-212) (natural protein)”, the Kd (as a rule, the equilibrium constant for the complex coming apart) was determined as 36 µM in assay [1] and 40 µM in assay [2].
